Assays:
[1] = target: DEBSIII TE wild type (thioesterase domain of the erythromycin polyketide synthase DEBSIII) (Saccharopolyspora erythrea); experiment: SEC
[2] = target: TylG5 TE wild type (thioesterase domain of the tylosin polyketide synthase TylG5) (Streptomyces fradiae); experiment: SEC

Row | stoichiometry N [1] | stoichiometry N [2] | Substance
1 | 2 |  | DEBSIII TE wild type (thioesterase domain of the erythromycin polyketide synthase DEBSIII) (domain or fragment)
2 |  | 2 | TylG5 TE wild type (thioesterase domain of the tylosin polyketide synthase TylG5) (domain or fragment)

Source: publication PMC11804868
